Test results from paper PMC3271731 (Nature, 2011).
Read-outs that look alike come from different tables or passages of the source.

Experiments:
crystal structure [1] = target: the molecule itself; assay: crystal structure
crystal structure [2] = target: the molecule itself; assay: crystal structure; remark: listed apart in the source

Protein	stoichiometry N (crystal structure [1])	stoichiometry N (crystal structure [2])
Pseudomonas aeruginosa 3-methylcrotonyl-CoA carboxylase β subunit (enzyme, UniProt Q9I297 1-535, looked up) MAILHTQINPRSAEFAANAATMLEQVNALRTLLGRIHEGGGSAAQARHSARGKLLVRERINRLLDPGSPFLELSALAAHEVYGEEVAAAGIVAGIGRVEGVECMIVGNDATVKGGTYYPLTVKKHLRAQAIALENRLPCIYLVDSGGANLPRQDEVFPDREHFGRIFFNQANMSARGIPQIAVVMGSCTAGGAYVPAMSDETVMVREQATIFLAGPPLVKAATGEVVSAEELGGADVHCKVSGVADHYAEDDDHALAIARRCVANLNWRKQGQLQCRAPRAPLYPAEELYGVIPADSKQPYDVREVIARLVDGSEFDEFKALFGTTLVCGFAHLHGYPIAILANNGILFAEAAQKGAHFIELACQRGIPLLFLQNITGFMVGQKYEAGGIAKHGAKLVTAVACARVPKFTVLIGGSFGAGNYGMCGRAYDPRFLWMWPNARIGVMGGEQAAGVLAQVKREQAERAGQQLGVEEEAKIKAPILEQYEHQGHPYYSSARLWDDGVIDPAQTREVLALALSAALNAPIEPTAFGVFRM	6	–
Pseudomonas aeruginosa 3-methylcrotonyl-CoA carboxylase α subunit (enzyme, biotinylated Lys681 (numbered by the equivalent residue of HsMCC)) MNPDYRSIQRLLVANRGEIACRVMRSARALGIGSVAVHSDIDRHARHVAEADIAVDLGGAKPADSYLRGDRIIAAALASGAQAIHPGYGFLSENADFARACEEAGLLFLGPPAAAIDAMGSKSAAKALMEEAGVPLVPGYHGEAQDLETFRREAGRIGYPVLLKAAAGGGGKGMKVVEREAELAEALSSAQREAKAAFGDARMLVEKYLLKPRHVEIQVFADRHGHCLYLNERDCSIQRRHQKVVEEAPAPGLGAELRRAMGEAAVRAAQAIGYVGAGTVEFLLDERGQFFFMEMNTRLQVEHPVTEAITGLDLVAWQIRVARGEALPLTQEQVPLNGHAIEVRLYAEDPEGDFLPASGRLMLYREAAAGPGRRVDSGVREGDEVSPFYDPMLAKLIAWGETREEARQRLLAMLAETSVGGLRTNLAFLRRILGHPAFAAAELDTGFIARHQDDLLPAPQALPEHFWQAAAEAWLQSEPGHRRDDDPHSPWSRNDGWRSALARESDLMLRCRDERRCVRLRHASPSQYRLDGDDLVSRVDGVTRRSAALRRGRQLFLEWEGELLAIEAVDPIAEAEAAHAHQGGLSAPMNGSIVRVLVEPGQTVEAGATLVVLEAMKMEHSIRAPHAGVVKALYCSEGELVEEGTPLVELDENQA	–	3
